Assay results reported in patent US6808893 (Johns Hopkins, dated 2004).

T1: EAAT4, full-length glutamate transporter (rat, UniProt O35921 1-561)
T1 sequence (looked up): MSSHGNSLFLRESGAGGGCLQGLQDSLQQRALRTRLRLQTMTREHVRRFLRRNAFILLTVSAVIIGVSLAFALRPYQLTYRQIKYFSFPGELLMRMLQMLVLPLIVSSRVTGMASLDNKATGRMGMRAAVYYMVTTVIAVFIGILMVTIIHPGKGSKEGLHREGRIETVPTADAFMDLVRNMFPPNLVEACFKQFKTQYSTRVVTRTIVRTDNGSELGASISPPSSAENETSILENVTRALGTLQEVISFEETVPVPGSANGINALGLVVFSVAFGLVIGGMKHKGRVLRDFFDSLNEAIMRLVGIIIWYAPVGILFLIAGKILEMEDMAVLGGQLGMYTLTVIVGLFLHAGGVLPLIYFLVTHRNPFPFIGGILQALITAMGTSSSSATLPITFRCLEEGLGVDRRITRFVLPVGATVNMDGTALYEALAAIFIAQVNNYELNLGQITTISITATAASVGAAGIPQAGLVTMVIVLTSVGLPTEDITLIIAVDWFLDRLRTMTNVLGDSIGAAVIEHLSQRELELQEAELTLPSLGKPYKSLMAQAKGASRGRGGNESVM

B1: GTRAP4-48 (glutamate transporter 4 associated protein), full-length (other)
chain: MSIRLPHSIDRSASKKQSHLSSPIASWLSSLSSLGDSTPERTSPSHHRQPSDTSETTAGLVQRCVIIQKDQHGFGFTVSGDRIVLVQSVRPGGAAMKAGVKEGDRIIKVNGTMVTNSSHLEVVKLIKSGAYAALTLLGSSPPSVGVSGLQQNPSVAGVLRVNPIIPPPPPPPPLPPPQHITGPKPLQDPEVQKHATQILWNMLRQEEEELQDILPPCGETSQRTCEGRLSVDSQEADSGLDSGTERFPSISESLMNRNSVLSDPGLDSPQTSPVILARVAQHHRRQGSDAALLPLNHQGIDQSPKPLIIGPEEDYDPGYFNNESDIIFQDLEKLKSHPAYLVVFLRYILSQADPGPLLFYLCSEVYQQTNPKDSRSLGKDIWNIFLEKNAPLRVKIPEMLQAEIDLRLRNNEDPRNVLCEAQEAVMLEIQEQINDYRSKRTLGLGSLYGENDLLGLDGDPLRERQMAEKQLAALGDILSKYEEDRSAPMDFAVNTFMSHAGIRLRESRSSCTAEKTQSAPDKDKWLPFFPKTKKQSSNSKKEKDALEDKKRNPILRYIGKPKSSSQSIKPGNVRNIIQHFENSHQYDVPEPGTQRLSTGSFPEDLLESDSSRSEIRLGRSGSLKGREEMKRSRKAENVPRPRSDVDMDAAAEAARLHQSASSSASSLSTRSLENPTPPFTPKMGRRSIESPNLGFCTDVILPHLLEDDLGQLSDLEPEPEVQNWQHTVGKDVVANLTQREIDRQEVINELFVTEASHLRTLRVLDLIFYQRMRKENLMPREELARLFPNLPELIEIHNSWCEAMKKLREEGPIIRDISDPMLARFDGPAREELQQVAAQFCSYQSVALELIRTKQRKESRFQLFMQEAESHPQCRRLQLRDLIVSEMQRLTKYPLLLENIIKHTEGGTSEHEKLCRARDQCREILKFVNEAVKQTENRHRLEGYQKRLDATALERASNPLAAEFKSLDLTTRKMIHEGPLTWRISKDKTLDLQVLLLEDLVVLLQRQEERLLLKCHSKTAVGSSDSKQTFSPVLKLNAVLIRSVATDKRAFFIICTSELGPPQIYELVALTSSDKNIWMELLEEAVQNATKHPGAAPIPIHPSPPGSQEPAYQGSTSSRVEINDSEVYHTEKEPKKLPEGPGPEQRVQDKQLIAQGEPVQEEDEEELRTLPRAPPSLDGENRGIRTRDPVLLALTGPLLMEGLADAALEDVENLRHLILWSLLPGHTVKTQAAGEPEDDLTPTPSVVSITSHPWDPGSPGQAPTISDSTRLARPEGSQPEGEDVAVSSLAHLPPRTRSSGVWDSPELDRNPAAEAASTEPAASYKVVRKVSLLPGGGVGAAKVAGSNAIPDSGQSESELSEVEGGAQATGNCFYVSMPAGPLDSSTEPTGTPPSPSQCHSLPAWPTEPQPYRGVRGGQCSSLVRRDVDVIFHTIEQLTIKLHRLKDMELAHRELLKSLGGESSGGTTPVGSFHTEAARWTDYSLSPPAKEALASDSQNGQEQGSCPEEGSDIALEDSATDTAVSPGP
notes: also called GTRAP48

Experiments:
[1] = target: T2, GTRAP4-41 (glutamate transporter 4 associated protein), full-length (rat, UniProt Q9QWN8 2-2388); experiment: co-immunoprecipitation from solubilized rat brain
T2 construct: Used for native GTRAP4-41 of rat brain and for full-length GTRAP4-41 expressed where no tag is stated (transfected HEK cells, HSV amplicon); also called GTRAP41
Procedure: (§1) Immunoprecipitation from cerebellum lysate. Sprague-Dawley (SD) rat cerebellum was dissected, washed with 50 mM Tris-HCl (pH 7.5), 2 mM EDTA and 0.5 mM DTT, and homogenized on ice in buffer containing 20 mM Tris-HCl (pH 7.5), 10% sucrose, 1 mM EDTA, 0.1 mM PMSF, 0.3 mM aprotinin, 1 mM benamidine, 10 mg/ml leupeptine and 10 mg/ml pepstatine. Protein concentration was measured and adjusted to 2–3 mg/ml, and the homogenate was mixed in a 1:1 ratio with the solubilization buffer (homogenization buffer plus 2% Triton X-100). After 2 h, the lysate was spun at 10,000 g for 10 min. For each immunoprecipitation, […] of the Triton-lysate was incubated overnight at 4° C. with 5 μg of the anti-amino-terminal EAAT4 antibody. Immune complexes were precipitated with protein A Sepharose (Pharmacia), washed three times with 10 mM Tris-HCl (pH 7.5) and 5 mM EDTA, eluted with 3×SDS loading buffer, and processed for western blot analysis. The filters were probed with affinity purified rabbit antibodies against GTRAP4-41 and GTRAP4-48.
(§2) The GTRAP4-41 and GTRAP4-48 interaction with EAAT4 was then studied in vivo using solubilized brain preparations. GTRAP4-41 and GTRAP4-48 are co-immunoprecipitated with EAAT4 from brain by antibodies directed at the amino-terminus of EAAT4 but not by antibodies directed at the carboxy-terminus. However, since the site of interaction is within the carboxy-terminus of EAAT4, it is likely that the carboxy-terminal antibodies disrupt the protein-protein interaction. […] GTRAP4-48 is also not co-immunoprecipitated from brain with antibodies directed at GTRAP4-41.

[2] = target: B1; experiment: co-immunoprecipitation from solubilized rat brain
Procedure: as §1, §2

[3] = target: T1, EAAT4, full-length glutamate transporter; experiment: cell-based or functional assay

T2 sequence (Q9QWN8 other isoform, or with tags, fused parts or gaps limits assumed): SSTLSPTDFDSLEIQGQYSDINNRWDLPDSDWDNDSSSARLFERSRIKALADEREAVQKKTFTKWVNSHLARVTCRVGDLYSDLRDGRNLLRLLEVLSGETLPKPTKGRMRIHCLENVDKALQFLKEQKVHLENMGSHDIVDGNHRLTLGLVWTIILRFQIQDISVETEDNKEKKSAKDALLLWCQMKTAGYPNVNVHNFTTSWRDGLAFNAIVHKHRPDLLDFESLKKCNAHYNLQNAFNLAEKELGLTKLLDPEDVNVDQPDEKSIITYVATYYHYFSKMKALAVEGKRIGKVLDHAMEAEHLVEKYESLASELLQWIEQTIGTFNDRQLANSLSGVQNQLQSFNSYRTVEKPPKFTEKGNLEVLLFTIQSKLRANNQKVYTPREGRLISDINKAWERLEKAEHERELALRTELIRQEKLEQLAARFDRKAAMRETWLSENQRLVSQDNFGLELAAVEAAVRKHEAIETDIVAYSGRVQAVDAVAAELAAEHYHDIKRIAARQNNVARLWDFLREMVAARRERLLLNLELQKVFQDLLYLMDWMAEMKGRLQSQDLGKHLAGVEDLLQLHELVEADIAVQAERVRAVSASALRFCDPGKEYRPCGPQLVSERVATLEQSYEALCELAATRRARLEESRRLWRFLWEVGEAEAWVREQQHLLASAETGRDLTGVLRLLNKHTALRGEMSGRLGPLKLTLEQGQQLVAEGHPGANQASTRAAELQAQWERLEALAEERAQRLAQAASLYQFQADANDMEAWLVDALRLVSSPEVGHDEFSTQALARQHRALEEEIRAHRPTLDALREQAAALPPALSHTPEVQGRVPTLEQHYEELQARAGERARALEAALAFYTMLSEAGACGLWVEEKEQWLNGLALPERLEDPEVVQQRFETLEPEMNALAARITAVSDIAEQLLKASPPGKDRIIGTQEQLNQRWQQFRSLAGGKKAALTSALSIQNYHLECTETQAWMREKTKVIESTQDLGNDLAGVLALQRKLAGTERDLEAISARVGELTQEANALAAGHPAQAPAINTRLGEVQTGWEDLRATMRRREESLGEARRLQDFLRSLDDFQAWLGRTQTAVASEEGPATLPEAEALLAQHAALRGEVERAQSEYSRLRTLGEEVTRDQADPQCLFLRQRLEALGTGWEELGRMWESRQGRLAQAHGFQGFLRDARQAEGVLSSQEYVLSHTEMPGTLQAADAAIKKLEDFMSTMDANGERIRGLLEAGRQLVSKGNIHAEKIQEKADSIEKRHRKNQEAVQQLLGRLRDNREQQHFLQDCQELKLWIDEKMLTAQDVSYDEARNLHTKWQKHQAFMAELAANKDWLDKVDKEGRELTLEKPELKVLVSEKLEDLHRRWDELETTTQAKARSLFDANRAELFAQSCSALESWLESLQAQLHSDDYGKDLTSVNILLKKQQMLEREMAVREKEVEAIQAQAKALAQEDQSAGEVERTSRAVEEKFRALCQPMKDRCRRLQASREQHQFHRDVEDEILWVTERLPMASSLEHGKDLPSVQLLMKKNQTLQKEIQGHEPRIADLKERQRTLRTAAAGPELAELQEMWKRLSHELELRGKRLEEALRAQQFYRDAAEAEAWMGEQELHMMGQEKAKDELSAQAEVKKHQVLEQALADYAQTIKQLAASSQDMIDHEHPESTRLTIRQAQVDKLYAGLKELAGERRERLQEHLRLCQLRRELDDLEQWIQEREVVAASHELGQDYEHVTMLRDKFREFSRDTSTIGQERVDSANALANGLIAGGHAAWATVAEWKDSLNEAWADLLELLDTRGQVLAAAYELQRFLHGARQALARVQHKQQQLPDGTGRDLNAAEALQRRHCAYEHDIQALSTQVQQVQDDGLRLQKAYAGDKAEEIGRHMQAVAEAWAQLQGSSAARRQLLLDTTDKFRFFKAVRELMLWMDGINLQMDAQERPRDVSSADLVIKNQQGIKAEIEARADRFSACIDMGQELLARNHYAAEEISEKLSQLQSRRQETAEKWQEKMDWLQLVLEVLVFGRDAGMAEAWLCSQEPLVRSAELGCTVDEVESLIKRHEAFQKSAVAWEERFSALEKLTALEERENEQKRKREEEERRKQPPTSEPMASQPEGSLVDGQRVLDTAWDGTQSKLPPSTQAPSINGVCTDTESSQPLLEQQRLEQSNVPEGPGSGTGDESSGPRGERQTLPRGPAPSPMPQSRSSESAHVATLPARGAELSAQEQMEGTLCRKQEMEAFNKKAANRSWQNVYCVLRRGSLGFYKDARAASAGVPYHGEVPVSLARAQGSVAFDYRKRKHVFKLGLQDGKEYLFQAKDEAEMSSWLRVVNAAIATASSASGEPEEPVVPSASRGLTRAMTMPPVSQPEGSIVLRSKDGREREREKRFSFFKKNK

binding result [1] | binding result [2] | Na+-dependent glutamate transport in HEK-rEAAT4 cells [3] [fold] | Binder
no binding | no binding | – | GLAST glutamate transporter (other, rat, UniProt P24942 1-543, looked up, whole, on cells; Native protein in solubilized rat brain) MTKSNGEEPRMGSRMERFQQGVRKRTLLAKKKVQNITKEDVKSYLFRNAFVLLTVSAVIVGTILGFALRPYKMSYREVKYFSFPGELLMRMLQMLVLPLIISSLVTGMAALDSKASGKMGMRAVVYYMTTTIIAVVIGIIIVIIIHPGKGTKENMYREGKIVQVTAADAFLDLIRNMFPPNLVEACFKQFKTSYEKRSFKVPIQANETLLGAVINNVSEAMETLTRIREEMVPVPGSVNGVNALGLVVFSMCFGFVIGNMKEQGQALREFFDSLNEAIMRLVAVIMWYAPLGILFLIAGKILEMEDMGVIGGQLAMYTVTVIVGLLIHAVIVLPLLYFLVTRKNPWVFIGGLLQALITALGTSSSSATLPITFKCLEENNGVDKRITRFVLPVGATINMDGTALYEALAAIFIAQVNNFDLNFGQIITISITATAASIGAAGIPQAGLVTMVIVLTSVGLPTDDITLIIAVDWFLDRLRTTTNVLGDSLGAGIVEHLSRHELKNRDVEMGNSVIEENEMKKPYQLIAQDNEPEKPVADSETKM
no binding | – | 4 | B1
no binding | no binding | – | GLT-1 glutamate transporter (other, rat, UniProt P31596 1-573, looked up, whole, on cells; Native protein in solubilized rat brain) MASTEGANNMPKQVEVRMHDSHLSSEEPKHRNLGMRMCDKLGKNLLLSLTVFGVILGAVCGGLLRLAAPIHPDVVMLIAFPGDILMRMLKMLILPLIISSLITGLSGLDAKASGRLGTRAMVYYMSTTIIAAVLGVILVLAIHPGNPKLKKQLGPGKKNDEVSSLDAFLDLIRNLFPENLVQACFQQIQTVTKKVLVAPPSEEANTTKAVISLLNETMNEAPEETKIVIKKGLEFKDGMNVLGLIGFFIAFGIAMGKMGEQAKLMVEFFNILNEIVMKLVIMIMWYSPLGIACLICGKIIAIKDLEVVARQLGMYMITVIVGLIIHGGIFLPLIYFVVTRKNPFSFFAGIFQAWITALGTASSAGTLPVTFRCLEDNLGIDKRVTRFVLPVGATINMDGTALYEAVAAIFIAQMNGVILDGGQIVTVSLTATLASIGAASIPSAGLVTMLLILTAVGLPTEDISLLVAVDWLLDRMRTSVNVVGDSFGAGIVYHLSKSELDTIDSQHRMHEDIEMTKTQSVYDDTKNHRESNSNQCVYAAHNSVVIDECKVTLAANGKSADCSVEEEPWKREK
no binding | no binding | – | EAAC1, full-length glutamate transporter (other, rat, UniProt P51907 1-523, looked up, whole, on cells; Used for native EAAC1 of rat brain and for EAAC1 expressed in HEK293, COS-7 and C6 glioma cells) MGKPTSSGCDWRRFLRNHWLLLSTVAAVVLGIVVGVLVRGHSELSNLDKFYFAFPGEILMRMLKLVILPLIISSMITGVAALDSNVSGKIGLRAVVYYFSTTVIAVILGIVLVVSIKPGVTQKVNEINRTGKTPEVSTVDAMLDLIRNMFPENLVQACFQQYKTKREEVKPASDPGGNQTEVSVTTAMTTMSENKTKEYKIVGLYSDGINVLGLIIFCLVFGLVIGKMGEKGQILVDFFNALSDATMKIVQIIMCYMPIGILFLIAGKIIEVEDWEIFRKLGLYMATVLSGLAIHSLVVLPLIYFIVVRKNPFRFALGMAQALLTALMISSSSATLPVTFRCAEEKNHVDKRITRFVLPVGATINMDGTALYEAVAAVFIAQLNGMDLSIGQIITISITATAASIGAAGVPQAGLVTMVIVLSAVGLPAEDVTLIIAVDWLLDRFRTMVNVLGDAFGTGIVEKLSKKELEQVDVSSEVNIVNPFALEPTILDNEDSDTKKSYVNGGFSVDKSDTISFTQTSQF
